Data reported in publication PMC13281853.

Biological target: ancGR2-LBD (ligand-binding domain of the ancestral glucocorticoid receptor 2), Dex-bound
Assay: SPR

Q: How did the Kd turn out when “ancGR2-LBD (ligand-binding domain of the ancestral glucocorticoid receptor 2), Dex-bound (domain or fragment)” was run?
A: 17.4 µM
